Columns and labels:
[1] = molecular target: T1, AtUBC8 (Arabidopsis thaliana, UniProt P35131 1-148); assay: ITC
[2] = molecular target: T1, AtUBC8; assay: ITC; remark: listed apart in the source

T1 sequence (P35131 whole entry): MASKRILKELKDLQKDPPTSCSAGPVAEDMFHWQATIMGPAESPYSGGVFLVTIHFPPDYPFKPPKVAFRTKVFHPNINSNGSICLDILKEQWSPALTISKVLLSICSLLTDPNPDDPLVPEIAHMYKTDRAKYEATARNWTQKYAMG

B1: AtMUB3 (natural protein)
chain: MPEEESIDIKFRLYDGSDIGPFRYSAASTVDFLKQRVVSDWPKGKTVVPKGINEVKLISSGKILENNKTVGQCKTPFGDIAGGVIVMHVVVQPSLAKSKTEKKVDKAPKAVICTCTIL
Kd [1]: 283 nM | Ka [2]: 3.53e+06 M⁻¹

— PMC4996978 (2016)
